Positions count from the first letter of the chain named. Numbers in names are those of the source. Counter-ions that a name gives are not always drawn.
B1: E432C: SSβG point mutant Glu-432→Cys (protein, listed as Sulfolobus solfataricus)
chain: MYSFPNSFRFGWSQAGFQSEMGTPGSEDPNTDWYKWVHDPENMAAGLVSGDLPENGPGYWGNYKTFHDNAQKMGLKIARLNVEWSRIFPNPLPRPQNFDESKQDVTEVEINENELKRLDEYANKDALNHYREIFKDLKSRGLYFILNMYHWPLPLWLHDPIRVRRGDFTGPSGWLSTRTVYEFARFSAYIAWKFDDLVDEYSTMNEPNVVGGLGYVGVKSGFPPGYLSFELSRRHMYNIIQAHARAYDGIKSVSKKPVGIIYANSSFQPLTDKDMEAVEMAENDNRWWFFDAIIRGEITRGNEKIVRDDLKGRLDWIGVNYYTRTVVKRTEKGYVSLGGYGHGCERNSVSLAGLPTSDFGWEFFPEGLYDVLTKYWNRYHLYMYVTENGIADDADYQRPYYLVSHVYQVHRAINSGADVRGYLHWSLADNYCWASGFSMRFGLLKVDYNTKRLYWRPSALVYREIATNGAITDEIEHLNSVPPVKPLRH
B2: W433C: SSβG point mutant Trp-433→Cys (protein, listed as Sulfolobus solfataricus)
chain: B1 chain with C432E, W433C
B3: C344S: SsβG mutant C344S, side chain at position 439 —CH2CH2SCH3 (protein)
chain: B1 chain with C344S, C432E
B4: M439C: SSβG point mutant Met-439→Cys (protein)
chain: B1 chain with C432E, M439C

How the values were obtained:
[1] = Substrate specificity compared across 4-methylumbelliferyl-β-D-glycosides; assay type: biochemical
Protocol: (§1) Parameters were determined by the method of initial rates. Activity was measured in time course assays of the hydrolysis of 4-methylumbelliferyl-β-D-glycosides (β-D-gluco, β-D-galacto, β-D-fuco, β-D-manno, β-D-xylo, β-D-glucurono) at 5-15 concentrations (0.001-1.5 mM) incubated at 80° C. in 50 mM sodium phosphate buffer, pH 6.5. Reactions were terminated at 2, 5, 10, 15 min by the addition of 100 μl of ice cold 1M NazCO3, pH 10 and analyzed (Labsystems Fluoroscan Ascent plate reader, […]). KM and kcat were derived by fitting the initial rates to hyperbolic Michaelis-Menten curves using GraFit 4 (Erithacus Software Ltd, Staines, UK).
(§2) Determination of the Michaelis-Menten parameters for the WT and mutant enzymes was performed at pH 6.5 at 80° C. for a broad range of representative, fluorophore-containing 4-methylumbelliferyl glycoside substrates, which allowed activities to be determined with a high degree of sensitivity (Table). Under these optimized assay conditions, the glucoside (Glc), galactoside (Gal) and fucoside (Fuc) substrates were hydrolysed well by SSβG-WT, but the xyloside (Xyl) substrate was hydrolysed relatively poorly (approx. 3% of turnover as determined by kcat compared with β-D-glucoside). […] In all cases the absolute D-stereospecificity and β-stereoselectivity of SSβG was maintained and no activity was detected towards L- or α-glycoside substrates.

[2] = Hydrolysis of 4-methylumbelliferyl-β-D-mannoside, initial rates; assay type: biochemical; conditions: for Km / kcat: 4-MUMan, 80° C., pH 6.5
Protocol: as §1, §2

[3] = Hydrolysis of 4-methylumbelliferyl-β-D-galactoside, initial rates; assay type: biochemical; conditions: 80° C., pH 6.5; for Km / kcat: 4-MUGal
Protocol: as §1, §2

[4] = Hydrolysis of 4-methylumbelliferyl-β-D-glucuronide, initial rates; assay type: biochemical; conditions: for kcat / Km: 4-MUGlcA, 80° C.
Protocol: as §1, §2

[5] = Parallel one-pot glycoside synthesis (transglycosylation to MeOH); assay type: biochemical; conditions: 8 h, 50° C., 1:9 MeOH:phosphate buffer pH 6.5
Protocol: Enzyme (WT, […] or E432C, 1 mg) was added to a mixed solution (1 mL) of para-nitrophenyl (pNP) β-D-manno-, galacto-, gluco- and xylo- pyranosides (0.03 mmol of each) in 1:9 MeOH:phosphate buffer (pH 6.5) and incubated at 50° C. for 45 min (WT), 4 h (WT), 8 h (W433C, E432C). After this time the solutions were extracted with EtOAc to remove para-nitrophenol and passed through short Sephadex and Celite:Graphite (1:1) columns to remove protein, pNP-glycoside and remaining para-nitrophenol. Solvent was removed and product mixtures were analysed by ^1H NMR and ESMS. Yields based on donor were calculated from integration of anomeric proton resonances in ^1H NMR (D2O, 500 MHz): α-Gal (δ 5.12, d, […]), α-Glc (δ 5.08, d, 3.8 Hz), α-Xyl (δ 5.04, d, J=3.4 Hz), α-Man (δ 5.03, d, J=1.8 Hz), β-Man (δ 4.75, s), β-Glc (δ 4.49, d, J=8.0 Hz), P-Gal (δ 4.45, d, 7.9 Hz), Me-β-Man (δ 4.44, s), β-Xyl (δ 4.42, d, J=7.8 Hz), Me-β-Glc (δ 4.23, d, J 8.1 Hz), Me-β-Xyl (δ 4.18, d, J=7.8 Hz), Me-β-Gal (δ 4.17, d, J=8.0 Hz).
Scheme 1: Parallel glycoside syntheses using SSβG-WT, -E432C and -W433C as catalysts. […] Such balanced libraries are not produced by SSβG-WT even under varying reaction times.

[6] = Hydrolysis of 4-methylumbelliferyl-β-D-fucoside, initial rates; assay type: biochemical; conditions: for Km / kcat: 4-MUFuc, 80° C., pH 6.5
Protocol: as §1, §2

[7] = Hydrolysis of 4-methylumbelliferyl-β-D-glucoside, initial rates; assay type: biochemical; conditions: 80° C., pH 6.5; for Km / kcat: 4-MUGlc
Protocol: as §1, §2

[8] = Hydrolysis of 4-methylumbelliferyl-β-D-xyloside, initial rates; assay type: biochemical; conditions: for Km / kcat: 4-MUXyl, 80° C., pH 6.5
Protocol: as §1, §2

[9] = Kinetic assay with o-nitrophenyl β-D-galactopyranoside-6-phosphate, absorbance at 405 nm; assay type: biochemical; conditions: oNPGalP6, 45° C., pH 6.5 phosphate buffer; averaged over 3 runs, except * 2 runs
Protocol: (§3) The kinetic activity of SsδG was assessed using ultra-violet/visible spectroscopy. Cleavage of the glycosidic bond of the nitrophenyl sugar analogue releases a chromophore (Scheme 18), either p-nitrophenol or o-nitrophenol.
(§4) The absorbance of these chromophores at 405 nm was continuously measured at regular time intervals, and the Beer-Lambert Law used to calculate the chromophore concentration at each of these time intervals.
(§5) In order to use this equation the extinction coefficient, ∈, of both p-nitrophenol and o-nitrophenol were calculated. Enzyme kinetic parameters were assessed using the initial rates method. The gradient of a plot of chromophore concentration against time gave the initial rate of reaction at a series of substrate concentrations (0.05-10 mM). Kinetic parameters were calculated by regression analysis of the kinetic data on the Michaelis-Menten Model (Fersht, A., Enzyme Structure and Mechanism, W.H. Freeman and Company, New York (1985)). The initial rate of reaction was measured. This model is valid when [substrate]>>[enzyme], which are initial rate conditions.
(§6) KM and νmax were calculated from non-linear Michaelis-Menten and linear Lineweaver-Burk plots. From these values, kcat and kcat/KM were calculated and compared.
KM=νmax/2, it is the concentration of substrate at which half the active sites are filled. Higher KM values correspond to weaker binding and lower KM values correspond to stronger binding kcat, the turnover number is the number of substrate molecules which are converted to product when the enzyme is saturated with substrate and ν (rate) is maximised. […] To allow comparison of the activity of the enzymes, ln({kcat/KM}mutant/{kcat/KM}WT) was calculated for each enzyme-substrate combination, to give overall activity relative to WT.
Substrate solutions (concentration 10 mM in 50 mM pH 6.5 phosphate buffer) were prepared. […] The enzyme stock solution (˜1 mgmL^−1) was diluted between 16- and 80-fold depending on the kinetic parameters determined*. […] Simultaneously a 96-well flat bottom microtitre plate was incubated at 45° C. in a plate reader. […] The plate containing the enzyme and substrate solutions was then incubated in the plate reader at 45° C. to allow equilibration. […] Release of p-nitrophenol/o-nitropbenol was measured by absorbance at […], with an automix of 3 s before the first read and Is between every subsequent read. The run time chosen was between 6 min and 10 min*, and readings were taken at intervals of between 6 s and 10 s*.
(§7) A graph of concentration of the released chromophore (either pNP or oNP) against time was drawn for each concentration using Microsoft Excel. […] These gradients were entered into Grafit, which calculated KM and νmax from the Michelis-Menten and Lineweaver-Burk plots. From these kcat and kcat/KM could be calculated. […]

[10] = Kinetic assay with p-nitrophenyl β-D-galactopyranoside, absorbance at 405 nm; assay type: biochemical; conditions: pNPGal, 45° C., pH 6.5 phosphate buffer, averaged over 3 runs, except * 2 runs
Protocol: as §3, §4, §5, §6
KM=νmax/2, it is the concentration of substrate at which half the active sites are filled. Higher KM values correspond to weaker binding and lower KM values correspond to stronger binding kcat, the turnover number is the number of substrate molecules which are converted to product when the enzyme is saturated with substrate and ν (rate) is maximised. Given both of these considerations, binding and rate, kcat/KM is typically as a measure of the overall relative activity of the enzyme. To allow comparison of the activity of the enzymes, ln({kcat/KM}mutant/{kcat/KM}WT) was calculated for each enzyme-substrate combination, to give overall activity relative to WT.
Substrate solutions (concentration 10 mM in 50 mM pH 6.5 phosphate buffer) were prepared. Kinetic assays were conducted in a 96-well flat bottom microtitre plate. Eight substrate concentrations were chosen for the assay from the range 0.05 mM to 10 mM (prepared from 10 mM stock solution), based on previous experimental experience of the kinetics of each enzyme (default range 0.05 mM to 2.00 mM)*. The enzyme stock solution (˜1 mgmL^−1) was diluted between 16- and 80-fold depending on the kinetic parameters determined*. The enzyme solution (496 µL) was dispensed into a 1.5 mL sealed Eppendorf tube. Into eight further Eppendorf tubes a portion of each substrate solution (650 μL) was dispensed. The tubes were incubated in a Techni Dri Block at 45° C. Simultaneously a 96-well flat bottom microtitre plate was incubated at 45° C. in a plate reader. […] The plate containing the enzyme and substrate solutions was then incubated in the plate reader at 45° C. to allow equilibration. […] Release of p-nitrophenol/o-nitropbenol was measured by absorbance at […], with an automix of 3 s before the first read and Is between every subsequent read. The run time chosen was between 6 min and 10 min*, and readings were taken at intervals of between 6 s and 10 s*.
as §7

melting point | Molecule | Km [2] | kcat [2] | Km [3] | kcat [3] | Gal kcat/KM reduction relative to WT [3] | kcat ([4]; pH 6.5) | Yield of Products, product 1 (β-glycoside of Glc) [5] | Yield of Products, product 2 (β-glycoside of Gal) [5] | Yield of Products, product 3 (β-glycoside of Man) [5] | Yield of Products, product 4 (β-glycoside of Xyl) [5] | Yield of Products, product 5 [5] | Yield of Products, product 6 [5] | Yield of Products, product 7 [5] | Km [6] | kcat [6] | Km [7] | kcat [7] | Km [8] | kcat [8] | other results
181 to 183.1 °C | O=[N+]([O-])c1ccccc1O[C@@H]1O[C@H](COP(=O)(O)O)[C@H](O)[C@H](O)[C@H]1O (as salt: ammonium) [Enzyme 17, o-nitrophenyl β-D-galactopyranoside 6-phosphate] | – | – | – | – | – | – | – | – | – | – | – | – | – | – | – | – | – | – | – | –
44 to 46 °C | CS(=O)(=S)OCCC(=O)O (stereo not drawn) [Enzyme 16, 2-carboxyethyl methanethiosulfonate] | – | – | – | – | – | – | – | – | – | – | – | – | – | – | – | – | – | – | – | –
– | B1 | 900 ± 260 µM | 2.8 ± 0.7 s⁻¹ | 470 ± 140 µM | 5.4 ± 0.8 s⁻¹ | 130 fold | NAD | 22% | 24% | 14% | 17% | 7% | 9% | 3% | 340 ± 40 µM | 18 ± 1 s⁻¹ | 340 ± 70 µM | 5.1 ± 0.5 s⁻¹ | 1260 ± 210 µM | 2.8 ± 0.3 s⁻¹ | kcat values for Glc,Gal,Xyl,Man substrates [1]: 2.8 to 5.4 s⁻¹; kcat (Man) increase relative to WT [2]: 2 fold; activity towards GlcA ([4]; pH 6.5): no detectable activity; Yield of Products, product 8 [5]: 4%; Glc kcat/KM reduction relative to WT [7]: 200 fold
– | B2 | 180 ± 20 µM | 0.92 ± 0.05 s⁻¹ | 2200 ± 1200 µM | 14 ± 6 s⁻¹ | 230 fold | NAD | 36% | 18% | 8% | 13% | 11% | 6% | 3% | 410 ± 90 µM | 31 ± 3 s⁻¹ | 1610 ± 350 µM | 33 ± 5 s⁻¹ | 590 ± 190 µM | 1.5 ± 0.3 s⁻¹ | broadening of Gal:Man stereospecificity relative to WT [1]: 25 fold; specificity range of kcat/KM for Glc:Gal:Xyl:Man [1]: 8 fold; Km ([4]; pH 6.5): NAD^; Yield of Products, product 8 [5]: 5%; Glc kcat/KM reduction relative to WT [7]: 140 fold; kcat (Xyl) lowering relative to WT [8]: 2.9 fold
– | B3 | – | – | – | – | – | – | – | – | – | – | – | – | – | – | – | – | – | – | – | Km [9]: 3590 µM; kcat [9]: 8.42 s⁻¹; kcat [10]: 4.16 s⁻¹; Km ([10]; read-out: KM): 475 µM
– | B4 | 42 ± 15 µM | 2.3 ± 0.4 s⁻¹ | 83 ± 16 µM | 94 ± 11 s⁻¹ | – | 1.3 ± 0.4 s⁻¹ | – | – | – | – | – | – | – | 23 ± 5 µM | 91 ± 8 s⁻¹ | 68 ± 28 µM | 190 ± 40 s⁻¹ | 68 ± 7 µM | 9.3 ± 0.2 s⁻¹ | increase in Xyl over Fuc specificity ([1]; relative to WT): 10 fold; kcat/KM for GlcA higher than WT [4]: 1.5 fold; Km ([4]; pH 6.5, read-out: Km): 1400 ± 600 µM; kcat/KM for Fuc lower than WT [6]: 1.8 fold; kcat/KM for Xyl higher than WT [8]: 4.7 fold; absolute increase in Xyl activity ([8]; relative to WT): 5 fold

— patent US20090181444A1, “MODIFIED CARBOHYDRATE PROCESSING ENZYME” (priority 2002, published 2009)
